Test results as given in the supplement of paper PMC11316812.
± gives the standard deviation of the averaged measurements.

What was measured:
[1] = tested on: hTERT-HMEC; experiment: percentage of EdU-negative (G0-arrested) nuclei per well, 72 h; higher = more G0 arrest; conditions: reference: sequence is the full UniProt precursor, the tested protein was the secreted form or ectodomain
[2] = tested on: MCF7; experiment: as above; conditions: reference: sequence is the full UniProt precursor, the tested protein was the secreted form or ectodomain
[3] = protein concentration 0.0284475 µM
[4] = protein concentration 0.284475 µM
[5] = protein concentration 0.02175 µM
[6] = protein concentration 0.2175 µM
[7] = protein concentration 0.0257143 µM
[8] = protein concentration 0.257143 µM
[9] = protein concentration 0.0225 µM
[10] = protein concentration 0.0135 µM
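Further: secreted proteins added to cultured cells, EdU pulse at the end, nuclei found by Hoechst imaging, EdU status from nuclear versus surrounding ring intensity ratio, PBS as neutral control.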

## MPRQLSAAAALFASLAVILHDGSQMRAKAFPETRDYSQPTAAATVQDIKKPVQQPAKQAPHQTLAARFMDGHITFQTAATVKIPTTTPATTKNTATTSPITYTLVTTQATPNNSHTAPPVTEVTVGPSLAPYSLPPTITPPAHTTGTSSSTVSHTTGNTTQPSNQTTLPATLSIALHKSTTGQKPVQPTHAPGTTAAAHNTTRTAAPASTVPGPTLAPQPSSVKTGIYQVLNGSRLCIKAEMGIQLIVQDKESVFSPRRYFNIDPNATQASGNCGTRKSNLLLNFQGGFVNLTFTKDEESYYISEVGAYLTVSDPETIYQGIKHAVVMFQTAVGHSFKCVSEQSLQLSAHLQVKTTDVQLQAFDFEDDHFGNVDECSSDYTIVLPVIGAIVVGLCLMGMGVYKIRLRCQSSGYQRI [Q9UQV4]
[1]; [3]
  percentage of EdU-negative: 5.03 ± 0.35%
[1]; [4]
  percentage of EdU-negative: 5.04 ± 0.52%
[2]; [3]
  percentage of EdU-negative: 25.5 ± 0.37%
[2]; [4]
  percentage of EdU-negative: 26.2 ± 0.31%

## MALTGYSWLLLSATFLNVGAEISITLEPAQPSEGDNVTLVVHGLSGELLAYSWYAGPTLSVSYLVASYIVSTGDETPGPAHTGREAVRPDGSLDIQGILPRHSGTYILQTFNRQLQTEVGYGHVQVHEILAQPTVLANSTALVERRDTLRLMCSSPSPTAEVRWFFNGGALPVALRLGLSPDGRVLARHGIRREEAGAYQCEVWNPVSVSRSEPINLTVYFGPERVAILQDSTTRTGCTIKVDFNTSLTLWCVSRSCPEPEYVWTFNGQALKNGQDHLNISSMTAAQEGTYTCIAKNTKTLLSGSASVVVKLSAAAVATMIVPVPTKPTEGQDVTLTVQGYPKDLLVYAWYRGPASEPNRLLSQLPSGTWIAGPAHTGREVGFPNCSLLVQKLNLTDTGRYTLKTVTVQGKTETLEVELQVAPLG [Q2WEN9]
[1]; [5]
  percentage of EdU-negative: 5.23 ± 0.14%
[1]; [6]
  percentage of EdU-negative: 7.63 ± 2.6%
[2]; [5]
  percentage of EdU-negative: 26.4 ± 2%
[2]; [6]
  percentage of EdU-negative: 27.5 ± 2.3%

## MAAARLCLSLLLLSTCVALLLQPLLGAQGAPLEPVYPGDNATPEQMAQYAADLRRYINMLTRPRYGKRHKEDTLAFSEWGSPHAAVPRELSPLDL
[1]; [7]
  percentage of EdU-negative: 5.37 ± 1.1%
[1]; [8]
  percentage of EdU-negative: 5.93 ± 0.18%
[2]; [7]
  percentage of EdU-negative: 20.5 ± 1.5%
[2]; [8]
  percentage of EdU-negative: 23.4 ± 3.6%

## MPSLLVLTFSPCVLLGWALLAGGTGGGGVGGGGGGAGIGGGRQEREALPPQKIEVLVLLPQDDSYLFSLTRVRPAIEYALRSVEGNGTGRRLLPPGTRFQVAYEDSDCGNRALFSLVDRVAAARGAKPDLILGPVCEYAAAPVARLASHWDLPMLSAGALAAGFQHKDSEYSHLTRVAPAYAKMGEMMLALFRHHHWSRAALVYSDDKLERNCYFTLEGVHEVFQEEGLHTSIYSFDETKDLDLEDIVRNIQASERVVIMCASSDTIRSIMLVAHRHGMTSGDYAFFNIELFNSSSYGDGSWKRGDKHDFEAKQAYSSLQTVTLLRTVKPEFEKFSMEVKSSVEKQGLNMEDYVNMFVEGFHDAILLYVLALHEVLRAGYSKKDGGKIIQQTWNRTFEGIAGQVSIDANGDRYGDFSVIAMTDVEAGTQEVIGDYFGKEGRFEMRPNVKYPWGPLKLRIDENRIVEHTNSSPCKSSGGLEESAVTGIVVGALLGAGLLMAFYFFRKKYRITIERRTQQEESNLGKHRELREDSIRSHFSVA
[1]; [9]
  percentage of EdU-negative: 4.9 ± 0.22%
[1]; protein concentration 0.225 µM
  percentage of EdU-negative: 6.51 ± 0.27%
[2]; [9]
  percentage of EdU-negative: 24.88 ± 0.14%
[2]; protein concentration 0.225 µM
  percentage of EdU-negative: 24.5 ± 1%

## MLRFYLFISLLCLSRSDAEETCPSFTRLSFHSAVVGTGLNVRLMLYTRKNLTCAQTINSSAFGNLNVTKKTTFIVHGFRPTGSPPVWMDDLVKGLLSVEDMNVVVVDWNRGATTLIYTHASSKTRKVAMVLKEFIDQMLAEGASLDDIYMIGVSLGAHISGFVGEMYDGWLGRITGLDPAGPLFNGKPHQDRLDPSDAQFVDVIHSDTDALGYKEPLGNIDFYPNGGLDQPGCPKTILGGFQYFKCDHQRSVYLYLSSLRESCTITAYPCDSYQDYRNGKCVSCGTSQKESCPLLGYYADNWKDHLRGKDPPMTKAFFDTAEESPFCMYHYFVDIITWNKNVRRGDITIKLRDKAGNTTESKINHEPTTFQKYHQVSLLARFNQDLDKVAAISLMFSTGSLIGPRYKLRILRMKLRSLAHPERPQLCRYDLVLMENVETVFQPILCPELQL [Q8WWY8]
[1]; [10]
  percentage of EdU-negative: 5.39 ± 1.9%
[1]; protein concentration 0.135 µM
  percentage of EdU-negative: 14.6 ± 3%
[2]; [10]
  percentage of EdU-negative: 25.5 ± 2.4%
[2]; protein concentration 0.135 µM
  percentage of EdU-negative: 29.4 ± 2.3%

## MLLPKKMKLLLFLVSQMAILALFFHMYSHNISSLSMKAQPERMHVLVLSSWRSGSSFVGQLFGQHPDVFYLMEPAWHVWMTFKQSTAWMLHMAVRDLIRAVFLCDMSVFDAYMEPGPRRQSSLFQWENSRALCSAPACDIIPQDEIIPRAHCRLLCSQQPFEVVEKACRSYSHVVLKEVRFFNLQSLYPLLKDPSLNLHIVHLVRDPRAVFRSRERTKGDLMIDSRIVMGQHEQKLKKEDQPYYVMQVICQSQLEIYKTIQSLPKALQERYLLVRYEDLARAPVAQTSRMYEFVGLEFLPHLQTWVHNITRGKGMGDHAFHTNARDALNVSQAWRWSLPYEKVSRLQKACGDAMNLLGYRHVRSEQEQRNLLLDLLSTWTVPEQIH [Q8NCG5]
[1]; protein concentration 0.006 µM
  percentage of EdU-negative: 5.16 ± 0.29%
[1]; protein concentration 0.06 µM
  percentage of EdU-negative: 4.77 ± 0.11%
[2]; protein concentration 0.006 µM
  percentage of EdU-negative: 26 ± 0.23%
[2]; protein concentration 0.06 µM
  percentage of EdU-negative: 29.1 ± 1.1%

## MLSSVVFWGLIALIGTSRGSYPFSHSMKPHLHPRLYHGCYGDIMTMKTSGATCDANSVMNCGIRGSEMFAEMDLRAIKPYQTLIKEVGQRHCVDPAVIAAIISRESHGGSVLQDGWDHRGLKFGLMQLDKQTYHPVGAWDSKEHLSQATGILTERIKAIQKKFPTWSVAQHLKGGLSAFKSGIEAIATPSDIDNDFVNDIIARAKFYKRQSF [Q86SG7]
[1]; [9]
  percentage of EdU-negative: 4.33 ± 0.76%
[1]; protein concentration 0.225 µM
  percentage of EdU-negative: 5.09 ± 0.33%
[2]; [9]
  percentage of EdU-negative: 27.3 ± 1.4%
[2]; protein concentration 0.225 µM
  percentage of EdU-negative: 25.6 ± 2.5%

## MRLPLLLVFASVIPGAVLLLDTRQFLIYNEDHKRCVDAVSPSAVQTAACNQDAESQKFRWVSESQIMSVAFKLCLGVPSKTDWVAITLYACDSKSEFQKWECKNDTLLGIKGEDLFFNYGNRQEKNIMLYKGSGLWSRWKIYGTTDNLCSRGYEAMYTLLGNANGATCAFPFKFENKWYADCTSAGRSDGWLWCGTTTDYDTDKLFGYCPLKFEGSESLWNKDPLTSVSYQINSKSALTWHQARKSCQQQNAELLSITEIHEQTYLTGLTSSLTSGLWIGLNSLSFNSGWQWSDRSPFRYLNWLPGSPSAEPGKSCVSLNPGKNAKWENLECVQKLGYICKKGNTTLNSFVIPSESDVPTHCPSQWWPYAGHCYKIHRDEKKIQRDALTTCRKEGGDLTSIHTIEELDFIISQLGYEPNDELWIGLNDIKIQMYFEWSDGTPVTFTKWLRGEPSHENNRQEDCVVMKGKDGYWADRGCEWPLGYICKMKSRSQGPEIVEVEKGCRKGWKKHHFYCYMIGHTLSTFAEANQTCNNENAYLTTIEDRYEQAFLTSFVGLRPEKYFWTGLSDIQTKGTFQWTIEEEVRFTHWNSDMPGRKPGCVAMRTGIAGGLWDVLKCDEKAKFVCKHWAEGVTHPPKPTTTPEPKCPEDWGASSRTSLCFKLYAKGKHEKKTWFESRDFCRALGGDLASINNKEEQQTIWRLITASGSYHKLFWLGLTYGSPSEGFTWSDGSPVSYENWAYGEPNNYQNVEYCGELKGDPTMSWNDINCEHLNNWICQIQKGQTPKPEPTPAPQDNPPVTEDGWVIYKDYQYYFSKEKETMDNARAFCKRNFGDLVSIQSESEKKFLWKYVNRNDAQSAYFIGLLISLDKKFAWMDGSKVDYVSWATGEPNFANEDENCVTMYSNSGFWNDINCGYPNAFICQRHNSSINATTVMPTMPSVPSGCKEGWNFYSNKCFKIFGFMEEERKNWQEARKACIGFGGNLVSIQNEKEQAFLTYHMKDSTFSAWTGLNDVNSEHTFLWTDGRGVHYTNWGKGYPGGRRSSLSYEDADCVVIIGGASNEAGKWMDDTCDSKRGYICQTRSDPSLTNPPATIQTDGFVKYGKSSYSLMRQKFQWHEAETYCKLHNSLIASILDPYSNAFAWLQMETSNERVWIALNSNLTDNQYTWTDKWRVRYTNWAADEPKLKSACVYLDLDGYWKTAHCNESFYFLCKRSDEIPATEPPQLPGRCPESDHTAWIPFHGHCYYIESSYTRNWGQASLECLRMGSSLVSIESAAESSFLSYRVEPLKSKTNFWIGLFRNVEGTWLWINNSPVSFVNWNTGDPSGERNDCVALHASSGFWSNIHCSSYKGYICKRPKIIDAKPTHELLTTKADTRKMDPSKPSSNVAGVVIIVILLILTGAGLAAYFFYKKRRVHLPQEGAFENTLYFNSQSSPGTSDMKDLVGNIEQNEHSVI
[1]; protein concentration 0.007 µM
  percentage of EdU-negative: 4.48 ± 0.71%
[1]; protein concentration 0.07 µM
  percentage of EdU-negative: 5.07 ± 0.13%
[2]; protein concentration 0.007 µM
  percentage of EdU-negative: 24.1 ± 0.79%
[2]; protein concentration 0.07 µM
  percentage of EdU-negative: 24 ± 0.4%

## MRLAGPLRIVVLVVSVGVTWIVVSILLGGPGSGFPRIQQLFTSPESSVTAAPRARKYKCGLPQPCPEEHLAFRVVSGAANVIGPKICLEDKMLMSSVKDNVGRGLNIALVNGVSGELIEARAFDMWAGDVNDLLKFIRPLHEGTLVFVASYDDPATKMNEETRKLFSELGSRNAKELAFRDSWVFVGAKGVQNKSPFEQHVKNSKHSNKYEGWPEALEMEGCIPRRSTAS
[1]; [9]
  percentage of EdU-negative: 5.06 ± 0.4%
[1]; protein concentration 0.225 µM
  percentage of EdU-negative: 6.75 ± 0.34%
[2]; [9]
  percentage of EdU-negative: 24.6 ± 1.1%
[2]; protein concentration 0.225 µM
  percentage of EdU-negative: 25.8 ± 2.3%
